Test results published in patent publication EP4703474A1, “ANTI-LRRC15 ANTIBODY” (priority 2023, dated 2024).

How the values were obtained:
[1] = tested on: Head and neck carcinoma cell line Detroit 562; assay: In vivo antitumor effect, Detroit 562 subcutaneous transplant model; conditions: 0.4 mg/kg, tail vein, on Day 10, female SCID mice
Protocol: (§1) The antitumor effects of the antibody-drug conjugates were evaluated by using animal models in which cells of a human tumor cell line had been transplanted into immunodeficient mice, or cells of a mouse tumor cell line had been transplanted into immunocompetent mice. 4 to 6 Week-old SCID mice (CB17/Icr-Prkdc[scid]/CrlCrlj, Jackson Laboratory Japan, Inc.), NSG mice (NOD.Cg-Prkdcscid Il2rgtm1Wjl/SzJ, Jackson Laboratory Japan, Inc.), or B6J mice (C57BL/6J, Jackson Laboratory Japan, Inc.) were habituated for 3 days or more under SPF conditions before experimental use. The mice were fed with sterilized solid feed and given sterilized tap water. The major and minor diameters of the transplanted tumors were measured twice a week with an electronic digital caliper (Mitutoyo Corporation), and the estimated tumor volume was calculated using the following formula. Estimated tumor volume (mm^3) = 1/2 × major diameter (mm) × [minor diameter (mm)]^2 All antibody-drug conjugates were diluted with ABS and administered into the tail vein at doses shown in each Example. In addition, ABS (vehicle) or control hIgG-PBD prepared in Reference Example 4 was administered as the control group, in a similar manner. 5 to 6 Mice were used per group in the experiment. To analyze the LRRC15 expression in mouse tumor models, immunohistochemical staining of LRRC15 was performed. […]

[2] = tested on: Fibrosarcoma cell line HT-1080; assay: In vivo antitumor effect, HT-1080 subcutaneous transplant model; conditions: 0.4 mg/kg, tail vein, on Day 7, female SCID mice
Protocol: as §1

B1: H02L01-V1-PBD (conjugate)
heavy: EVQLVESGGGLVQPGGSLRLSCAASGFTFRDYYMAWVRQAPGKGLEWVSSIGFDESRTYYADSVKGRFTISRDDSKNTLYLQMNSLRAEDTAVYYCARHGVSKYSGDNWFAYWGQGTLVTVSSASTKGPSVFPLAPSSKSTSGGTAALGCLVKDYFPEPVTVSWNSGALTSGVHTFPAVLQSSGLYSLSSVVTVPSSSLGTQTYICNVNHKPSNTKVDKKVEPKSCDKTHTCPPCPAPEAAGGPSVFLFPPKPKDTLMISRTPEVTCVVVDVSHEDPEVKFNWYVDGVEVHNAKTKPREEQYNSTYRVVSVLTVLHQDWLNGKEYKCKVSNKALAAPIEKTISKAKGQPREPQVYTLPPSREEMTKNQVSLTCLVKGFYPSDIAVEWESNGQPENNYKTTPPVLDSDGSFFLYSKLTVDKSRWQQGNVFSCSVMHEALHNHYTQKSLSLSPGK
light: DIQMTQSPSSLSASVGDRVTITCKSSQGLLYSGDQKNYLAWYQQKPGKAPKLLIYWASTRQSGVPSRFSGSGSGTDFTLTISSLQPEDFATYYCQQYYDPPYTFGQGTKVEIKRTVAAPSVFIFPPSDEQLKSGTASVVCLLNNFYPREAKVQWKVDNALQSGNSQESVTEQDSKDSTYSLSSTLTLSKADYEKHKVYACEVTHQGLSSPVTKSFNRGEC
[1]
  antitumor effect (estimated tumor volume): antitumor activity higher than that of the vehicle and control hIgG-PBD
[2]
  antitumor effect (estimated tumor volume): antitumor activity higher than that of the vehicle and control hIgG-PBD
